Laboratory results as given in patent US20220306762A1 (CRYSTAL BIOSCIENCE, published 2022).
Substitutions are numbered along the chain they refer to. One block for each binder: values may come before it.

How the values were obtained:
[1] = target: T1, His-tagged human CD38 (ACRO Biosystems cat #CD8-H5224) (human, UniProt P28907 43-300); experiment: ELISA, coated His-CD38
T1 construct: bought recombinant protein with His tag

[2] = target: T2, His-tagged cynomolgus monkey CD38 (ACRO Biosystems cat #CD8-05223) (cynomolgus monkey, UniProt Q5VAN0 43-301); experiment: ELISA, coated His-CD38
T2 construct: bought recombinant protein with His tag

[3] = target: T3, His-tagged mouse CD38 (ACRO Biosystems #CD8-M5223) (mouse, UniProt P56528 45-304); experiment: ELISA, coated His-CD38
T3 construct: bought recombinant protein with His tag; also called Murine
T3 sequence (looked up): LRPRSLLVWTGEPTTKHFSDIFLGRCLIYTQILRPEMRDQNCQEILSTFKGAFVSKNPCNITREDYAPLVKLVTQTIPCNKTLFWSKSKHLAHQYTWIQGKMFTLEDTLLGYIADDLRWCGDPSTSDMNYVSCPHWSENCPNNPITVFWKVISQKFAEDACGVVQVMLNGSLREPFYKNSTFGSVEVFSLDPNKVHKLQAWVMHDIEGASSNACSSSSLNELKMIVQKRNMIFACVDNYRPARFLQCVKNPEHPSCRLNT

[4] = target: T4, murine CD38 on transiently transfected Expi293 cells (Origene MC208001) (murine, UniProt P56528 1-304); experiment: flow cytometry, transfected Expi293 cells;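 further: antibody binding to Expi293 cells transiently expressing human or murine CD38, antibodies applied at 10 ug/ml for 60 min on ice, read by flow cytometry as percent gated cells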
T4 construct: whole, on cells; also called Murine (FACs)
T4 sequence (looked up): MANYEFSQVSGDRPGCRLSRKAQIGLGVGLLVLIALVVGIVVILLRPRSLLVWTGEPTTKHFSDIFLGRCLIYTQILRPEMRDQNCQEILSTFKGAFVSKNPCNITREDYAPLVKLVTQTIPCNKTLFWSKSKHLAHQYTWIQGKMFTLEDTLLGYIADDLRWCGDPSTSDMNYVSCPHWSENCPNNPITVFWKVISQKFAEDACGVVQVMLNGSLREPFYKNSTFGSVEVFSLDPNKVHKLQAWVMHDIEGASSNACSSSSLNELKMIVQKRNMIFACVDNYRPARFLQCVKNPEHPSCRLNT

[5] = target: T5, human CD38 on transiently transfected Expi293 cells (Origene #SC321273) (human, UniProt P28907 1-300); experiment: flow cytometry, transfected Expi293 cells;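 further: antibody binding to Expi293 cells transiently expressing human or murine CD38, antibodies applied at 10 ug/ml for 60 min on ice, read by flow cytometry as percent gated cells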
T5 construct: whole, on cells; also called Human (FACs)

[6] = target: T1, His-tagged human CD38 (ACRO Biosystems …); experiment: SPR, captured scFv-Fc, His-CD38 analyte;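 further: SPR on a Carterra LSA, scFv-Fc captured by anti-human Fc on HC30M chip, His-tagged CD38 (human, mouse, cynomolgus) flowed as analyte in eight 1:2 steps from 400 nM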
[7] = target: T2, His-tagged cynomolgus monkey CD38 (ACRO …); experiment: SPR, captured scFv-Fc, His-CD38 analyte;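 further: SPR on a Carterra LSA, scFv-Fc captured by anti-human Fc on HC30M chip, His-tagged CD38 (human, mouse, cynomolgus) flowed as analyte in eight 1:2 steps from 400 nM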
[8] = target: T3, His-tagged mouse CD38 (ACRO Biosystems …); experiment: SPR, captured scFv-Fc, His-CD38 analyte;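 further: SPR on a Carterra LSA, scFv-Fc captured by anti-human Fc on HC30M chip, His-tagged CD38 (human, mouse, cynomolgus) flowed as analyte in eight 1:2 steps from 400 nM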
[9] = target: T6, His-tagged cynomolgus monkey CD38 (ACRO Biosystems, CD8-05223 [sic]) (cynomolgus monkey, UniProt Q5VAN0 43-301); experiment: SPR (second run), His-tagged CD38
T6 construct: bought protein; used for ELISA coating and as SPR analyte; not shown: His tag

[10] = target: T7, His-tagged human CD38 (ACRO Biosystems CD8-H5224) (human, UniProt P28907 43-300); experiment: SPR (second run), His-tagged CD38
T7 construct: bought protein; used for ELISA coating and as SPR analyte; not shown: His tag

B2: 40566p1.F8 (scFv, V domains shown)
VH: DVQLVESGGGVVRPGESLRLSCAASGFTFDNYDMTWVRQAPGEGLEWVSFISSRGTFAYYTDSVKGRFTISRDNSKNTLYLQMNSLRAEDTAIYYCTKDSGEYYFFDYWGLGTLVTVSS
VL: EIVMTQSPATLSVSPGERATFSCRASQSVNSKLAWYQQKPGQAPRLLIYGASRRATGIPDRFSGSGSGTEFTLTISSLQSEDFAVYYCQQYYDWPPLTFGGGTKVEIK
notes: tested as scFv-Fc supernatant
- ELISA 1 ug/ml [1]: 1.75
- ELISA 1 ug/ml [2]: 1.8
- ELISA 1 ug/ml [3]: 1.88
- FACs 10 ug/ml (percent gated) [4]: 72.1%
- FACs 10 ug/ml (percent gated) [5]: 19.5%
- Kd [6]: 10900 nM
- Kd [7]: 4.82 nM
- Kd [8]: 7.59 nM

B3: 40617p1.2.A3 (scFv, V domains shown)
VH: EVQLLESGGGLVQPGGSLRLSCAASGFTFSNYWMTWVRQAPGKGLEWVSAISSYGGNYIYYADSVKGRFTISRDNSKDTLYLQMNSLRAEDTAVYYCAKDWDDGMDVWGQGTTVTVSS
VL: B2 VL with T10V, F21L, R53T, T56A, E70D, L78P, Q90H, W94L, L97Y, T98S
notes: tested as scFv-Fc supernatant
- ELISA 1 ug/ml [1]: 1.75
- ELISA 1 ug/ml [2]: 1.7
- ELISA 1 ug/ml [3]: 0.745
- FACs 10 ug/ml (percent gated) [4]: 69.4%
- FACs 10 ug/ml (percent gated) [5]: 70.3%
- Kd [6]: 28.1 nM
- Kd [7]: 92.8 nM
- Kd [8]: 75.5 nM

B4: 40617p1.2.A1 (scFv, V domains shown)
VH: B3 VH with N31S, N57Q, I59T, Q83H, N85D
VL: B2 VL with T10V, F21L, S31I, R53T, T56A, E70D, E81D, W94L, L97Y, T98S
notes: tested as scFv-Fc supernatant
- ELISA 1 ug/ml [1]: 1.57
- ELISA 1 ug/ml [2]: 1.67
- ELISA 1 ug/ml [3]: 1.13
- FACs 10 ug/ml (percent gated) [4]: 67.9%
- FACs 10 ug/ml (percent gated) [5]: 78.8%
- Kd [6]: 82.9 nM
- Kd [7]: 77.9 nM
- Kd [8]: 108 nM

B7: 40596p1.F6 (scFv, V domains shown)
VH: EVQLLESGGGLVQPGGSLRLSCAASGFDFSKNAMSWVRQAPGKGLEYVAGSGWSGSFIFYADSVKGRFTVSRDNSENTLYLQMSSLRAEDTAVYYCAKNPGFGEMDVWGQGTTVTVSS
VL: EIVLTQSPGSLFLSPGERATLTCRASQTIGSNLAWYQQKFGQAPRLLIYGASTRAADIPDRFSGSGSGTEFTLTISSLQSEDFAVYYCQQYNSWPPLTFGGGTKVEIK
notes: tested as scFv-Fc supernatant
- ELISA 1 ug/ml [1]: 1.91
- ELISA 1 ug/ml [2]: 1.87
- ELISA 1 ug/ml [3]: 1.9
- FACs 10 ug/ml (percent gated) [4]: 68.6%
- FACs 10 ug/ml (percent gated) [5]: 72.8%
- Kd [6]: 84.7 nM
- Kd [7]: 98.4 nM
- Kd [8]: 10.8 nM

B11: 40769p1.1.A4 (scFv, V domains shown)
VH: EVQLLESGGGLVQPGGSLRLSCTASGITFSRFNMFWVRQAPGKGLEFVASIRDDGSWTYYADSVKGRFTISRDNSKNTLYLQMNSLRAEDTAVYYCAKDYNSKDFIYHYVMDVWGQGTTVTVSS
VL: QSVLTQPPSASGTPGQRVTISCSGRNSNIGNNVVNWYQQLPGTAPKLLIYKDDQRPSGVPDRFSGSKSGTSASLAISGLQSEDEADYYCSTWDDSLNGWVFGGGTKLTVL
notes: tested as scFv-Fc supernatant
- ELISA 1 ug/ml [1]: 1.67
- ELISA 1 ug/ml [2]: 1.78
- ELISA 1 ug/ml [3]: 0.049
- FACs 10 ug/ml (percent gated) [4]: 3.09%
- FACs 10 ug/ml (percent gated) [5]: 69.9%
- Kd [6]: 54400 nM
- Kd [7]: 0.106 nM
- Kd [8]: 675000 nM

B12: 40769p1.1.A2 (scFv, V domains shown)
VH: EVQLLESGGGLVQPGGSLRLSCAASGFLFDDYGMSWVRQAPGKGLEWVSAISYKGGSTYYADSVKGRFTISRDNSKNTLYLQMSSLRAEDTAVYYCAKDHKWNYYGMDVWGQGTTVTVSS
VL: QSVLTQPPSASGTPGQRVTISCSGSTSNIGNDNYVSWYQQLPGTAPRLLIYKDDQRPSGVPDRFSGSKSGTSASLAISGLQSEDEADYYCGTWDDRLNAWVFGGGTKLTVL
- Kd [9]: 0.72 nM
- Kd [10]: 0.82 nM

B13: 40596p1.B1 (scFv, V domains shown)
VH: EVQLLESGGGLVEPGGSLRLSCAASGFDFSTYAMTWVRQAPGKGLEWVAGNGWSGSFIYYADSVKGRFTISRDNSKNTLYLQMNSLRAEDTAVYYCTRNPGFGEMDVWGQGTTVTVSS
VL: EIVLTQSPGTLRLSPGERATLSCKASQTVGTTLAWYQQKPGQAPRLLIYGASTRATGIPDRFSGSGSGTEFTLTISSLQSEDFADYYCQQYKSWPPLTFGGGTKVEIK
notes: tested as scFv-Fc supernatant
- ELISA 1 ug/ml [1]: 1.79
- ELISA 1 ug/ml [2]: 1.99
- ELISA 1 ug/ml [3]: 1.76
- FACs 10 ug/ml (percent gated) [4]: 45.4%
- FACs 10 ug/ml (percent gated) [5]: 66.1%
- Kd [6]: 46600 nM
- Kd [7]: 110 nM
- Kd [8]: 9070 nM

B14: 40617p1.1.F1 (scFv, V domains shown)
VH: KVQLLESGGGLVQPGGSLRLSCAASGFTFSSYSMTWVRQAPGKGLEWVSRIYNGGSTYYADSVKGRFTISRDNSKNTLYLQMNSLRAEDTAVYYCARDTYAIDVWGQGTTVTVSS
VL: EIVLTQSPATLSVSPGERATLSCRASQGIAGNLAWYQQKPGQAPRLLIYAASNRATGIPARFSGSGSGTDFTLTISSLQSEDFAVYYCQHYYDWPPYSFGGGTKVEIK
- Kd [9]: 786 nM
- Kd [10]: 119 nM

Continued by falling Kd [6], values first:

- ELISA 1 ug/ml [1]: 1.88
- ELISA 1 ug/ml [2]: 1.97
- ELISA 1 ug/ml [3]: 1.81
- FACs 10 ug/ml (percent gated) [4]: 68.7%
- FACs 10 ug/ml (percent gated) [5]: 72.8%
- Kd [6]: 75.8 nM
- Kd [7]: 13.6 nM
- Kd [8]: 6.82 nM
B10: 40596p1.A5 (scFv, V domains shown)
VH: B7 VH with K31N, S84N
VL: B7 VL with F12S, T22R, T28S, F40P, R45S, S76T
notes: tested as scFv-Fc supernatant

- ELISA 1 ug/ml [1]: 1.84
- ELISA 1 ug/ml [2]: 1.89
- ELISA 1 ug/ml [3]: 1.74
- FACs 10 ug/ml (percent gated) [4]: 59%
- FACs 10 ug/ml (percent gated) [5]: 68%
- Kd [6]: 67.8 nM
- Kd [7]: 56.3 nM
- Kd [8]: 20.8 nM
B9: 40596p1.G10 (scFv, V domains shown)
VH: B7 VH with S25P
VL: B7 VL
notes: tested as scFv-Fc supernatant

- ELISA 1 ug/ml [1]: 1.98
- ELISA 1 ug/ml [2]: 1.85
- ELISA 1 ug/ml [3]: 1.77
- FACs 10 ug/ml (percent gated) [4]: 61%
- FACs 10 ug/ml (percent gated) [5]: 71.5%
- Kd [6]: 63.7 nM
- Kd [7]: 154 nM
- Kd [8]: 19 nM
B8: 40596p1.D2 (scFv, V domains shown)
VH: B7 VH with F68S
VL: B7 VL with I2L
notes: tested as scFv-Fc supernatant

- ELISA 1 ug/ml [1]: 1.77
- ELISA 1 ug/ml [2]: 2.17
- ELISA 1 ug/ml [3]: 1.5
- FACs 10 ug/ml (percent gated) [4]: 68.4%
- FACs 10 ug/ml (percent gated) [5]: 67.8%
- Kd [6]: 60.7 nM
- Kd [7]: 39.3 nM
- Kd [8]: 154 nM
B6: 40617p1.2.H8 (scFv, V domains shown)
VH: B3 VH with N31S, I59M
VL: EIVMTQSPATLSVSPGDRATLSCRASQSVNSKLAWYQQKPGQAPRLLIYAASSRATGIPDRFSGSGSGTDFTLTISRLEPEDFAVYYCQQYYDLPPYSFGGGTKVEIK
notes: tested as scFv-Fc supernatant

- ELISA 1 ug/ml [1]: 1.81
- ELISA 1 ug/ml [2]: 1.83
- ELISA 1 ug/ml [3]: 1.05
- FACs 10 ug/ml (percent gated) [4]: 68.5%
- FACs 10 ug/ml (percent gated) [5]: 69.5%
- Kd [6]: 12.5 nM
- Kd [7]: 30.6 nM
- Kd [8]: 39.4 nM
B5: 40617p1.2.H1 (scFv, V domains shown)
VH: B3 VH with S30T, I59M, K77E, D78N
VL: EIVMTQSPAVLSVSPGERATLSCRASQTVGSKLAWYQQKPGQAPRLLIYGVSTRAAGIPDRFSGSGSGTDFTLTISSLQSEDFAVYYCQQYYDLPPYSFGGGTKVEIK
notes: tested as scFv-Fc supernatant

- ELISA 1 ug/ml [1]: 1.7
- ELISA 1 ug/ml [2]: 1.68
- ELISA 1 ug/ml [3]: 1.14
- FACs 10 ug/ml (percent gated) [4]: 4.81%
- FACs 10 ug/ml (percent gated) [5]: 86.3%
- Kd [6]: 1.43 nM
- Kd [7]: 18 nM
- Kd [8]: 56300 nM
B1: 40769p1.2.B10 (scFv, V domains shown)
VH: EVQLLESGGGLVQPGGSLRLSCPASGFDFSSYWMTWVRQAPGKGLEWVSTITDSGGRAWYADSVRGRFTISRDNSKNTLYLQMNSLRAEDTAVYYCARDTPKTYYYYAMDVWGQGTTVTV
VL: QSALTQPPSASGTPGQRVTISCSGSSSNIQYSYVSWYQQLPGTAPKLLIYNNVQRPSGVPDRFSGSKSGTSASLAISGLQSEDEADYYCATWDESLLGLWVFGGGTKLTVL
notes: tested as scFv-Fc supernatant
